Here are results for seven molecules from patent US20230331820A1 (GlaxoSmithKline, published 2023).

Test [1] concerns the target T1, gEgI WT: HSV2 gEgI heterodimer comprising gE and gI wildtype ectodomains (HSV2, UniProt P89475 21-416; P06764 21-256). Put plainly: SPR binning; gEgI captured by mAb 5.
In test [2] the target is T1, gEgI WT: HSV2 gEgI heterodimer …. Put plainly: SPR binning; gEgI captured by mAb 45.
For test [3] the target is unchanged. Put plainly: SPR binning; gEgI captured by mAb 40.
For test [4] the target is unchanged. Description: SPR binning; gEgI captured by mAb 15.
Test [5] concerns the target gEgI mutant (338): HSV2 gEgI mutant heterodimer comprising gE and gI ectodomains with insertion of a (HSV2, UniProt P89475 21-416; P06764 21-256). Put plainly: ELISA, supernatant.
Test [6] addresses gE WT: HSV2 gE wildtype ectodomain (HSV2, UniProt P89475 21-416). Description: ELISA, supernatant.
The target of test [7] is T2, gI WT: HSV2 gI wildtype ectodomain (HSV2, UniProt P06764 21-256). Put plainly: ELISA, supernatant.
The target of test [8] is T1, gEgI WT: HSV2 gEgI heterodimer …. Description: SPR binning; gEgI captured by mAb 19.
The target is the same in test [9]. Put plainly: SPR binning; gEgI captured by mAb 39.
The target is the same in test [10]. Description: SPR binning; gEgI captured by mAb 42.
The target is the same in test [11]. Put plainly: SPR binning; gEgI captured by mAb 34.
The target is the same in test [12]. Put plainly: SPR binning; gEgI captured by mAb 9.
For test [13] the target is unchanged. Description: SPR binning; gEgI captured by mAb 20.
The target is the same in test [14]. Put plainly: SPR binning; gEgI captured by mAb 24.
Test [15] shares this target. Put plainly: SPR binning; gEgI captured by mAb 17.
Test [16] has the same target. Description: SPR binning; gEgI captured by mAb 10.
Test [17] has as its target T2, gI WT: HSV2 gI wildtype ectodomain. Put plainly: ELISA, supernatant. This is another data set of the same source.
Test [18] concerns the target T1, gEgI WT: HSV2 gEgI heterodimer …. Description: Biacore SPR, gEgI HEK BMP1063 at 10 µg/ml for 180 s over the mAb.
Test [19] has the same target. Put plainly: Biacore SPR, gEgI CHO BMP1181 at 10 µg/ml for 180 s over the mAb.

Where two headings read alike, the source gives them in different places.

B1: mAb clone 17 (antibody, V domains shown)
VH: QVQLKESGPGLVAPSQSLSITCTVSGFSLTSYGVHWVRQPPGKGLEWLGVIWAGGSSNYNSALMSRLSISKDNSKSQVFLKMNSLQTDDTAMYYCARDGYGYVYYAMDYWGQGTSVTVSS
VL: DIVMTQAAPSVPVTPGESVSISCRSSKSLLHSNGNTYLYWFLQRPGQSPQLLIYRMSNLASGVPDRFSGSGSGTAFTLRISRVEAEDVGVYYCMQHLEYPFTFGAGTKLELK
For B1, the RU in test [1] is 0.5 RU; in test [2], -2.6 RU; in [3] it was -2.4 RU; in test [4] it was -6.7 RU; in test [8], -6.3 RU; in [9], 0.5 RU. Also, the RU was -0.8 RU in test [10]; -9.4 RU in test [11]; -0.5 RU in test [12]; 2.2 RU in [13]; -2 RU in test [14]; -8.7 RU in [15]. The RU in [16] is 4.6 RU. The binding result in test [5] is listed as “binds”; in test [6], “no binding”; in test [7], “no binding”.

B2: mAb clone 10 (antibody, V domains shown)
VH: EVKLVESGGGLVQPGGSLRLSCATSGFTFSDFYMEWVRQPPGKRLEWIAASRNKANDYTTEYSASVKGRFIVSRDTSQSILYLQMNALRAEDTAIYYCARENYGNPAMDYWGQGTSVTVSS
VL: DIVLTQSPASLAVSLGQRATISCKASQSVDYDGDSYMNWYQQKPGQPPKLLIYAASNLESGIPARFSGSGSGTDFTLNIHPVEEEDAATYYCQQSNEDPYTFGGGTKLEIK
In the case of B2, the RU in [1] is 10.6 RU; in [2], -2 RU; in [3], 8.3 RU; in test [4], 3.3 RU; in test [8] it was 2.3 RU; in test [9], 10.3 RU. Also, the RU in test [10] was determined as 9.4 RU; in test [11], 2 RU; in test [12], 8.3 RU; in test [13], 10.8 RU; in test [14], 8.2 RU; in [15], 8.2 RU. Also, in [16], the RU was 4 RU. The values for the binding result in test [5], in test [6] and in test [7] were “binds”, “no binding” and “no binding”, respectively.

B3: mAb clone 2 (antibody, V domains shown)
VH: QVQLQQSGAELVRPGTSVKVSCKASGYAFTNYLIEWVKQRPGQGLEWIGVINPGSGGTNYNEKFKGKATLTADKSSSTAYMQLSSLTSDDSAVYFCARSRGYPYAMDYWGQGTSVTVSS
VL: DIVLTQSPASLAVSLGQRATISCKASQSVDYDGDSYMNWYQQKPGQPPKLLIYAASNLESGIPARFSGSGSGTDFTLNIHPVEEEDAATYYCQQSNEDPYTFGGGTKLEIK
Regarding B3, the binding result in test [17] is reported as “binds”; in test [5] it was “binds”; in test [6] it was “no binding”. The entries for the “RU Ag/250 RU mAbs” value in [18] and in test [19] were 1.24 RU Ag/250 RU mAbs and -1.26 RU Ag/250 RU mAbs, respectively.

B4: mAb clone 9 (antibody, V domains shown)
VH: EVQLQQSGPELEKPGASVKISCKASGYSFTGYNMNWVKQSNGKSLEWIGNIDPYYGGTSYNQKFKGKATLTLDKSSSTAYMQLKSLTSEDSAVYYCARSRFITTVVATDYYAMDYWGQGTSVTVSS
VL: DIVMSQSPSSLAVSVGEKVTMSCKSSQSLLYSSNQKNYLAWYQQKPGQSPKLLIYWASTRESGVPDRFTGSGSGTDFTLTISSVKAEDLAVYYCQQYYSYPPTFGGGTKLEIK
In the case of B4, the RU is 9.4 RU in [1]; 1.8 RU in [2]; 6 RU in [3]; 5.5 RU in test [4]; -5.1 RU in test [8]; 9 RU in [9]. In addition, the RU in test [10] is 7 RU; in [11], 0.9 RU; in test [12], -0.4 RU; in [13] it was 4.8 RU; in test [14], -0.1 RU; in test [15], 7.8 RU. Also, the RU in test [16] was determined as 11 RU. Further, the binding result in test [5] was “binds”; in [6] it was “no binding”; in test [7], “no binding”.

B5: mAb clone 20 (antibody, V domains shown)
VH: QVQLQQSGAELVRPGTSVKVSCKASGYAFTNYLIEWVKQRPGQGLEWIGVINPGSGGTNYNEKFKGKATLTADKSSSTAYMQLSSLTSDDSAVYFCARSHYGNYYAMDYWGQGTSVTVSS
VL: NIVLTQSPASLAVSLGQRATISCRASESVDSYGNSFMHWYQQKPGQPPKLLIYLASNLESGVPARFSGSGSRTDFTLTIDPVEADDAATYYCQQNNEDPWTFGGGTKLEIK
Turning to B5, the RU in test [1] was 25.3 RU; in test [2], 16.4 RU; in test [3], 21.3 RU; in [4], 18.5 RU; in [8] it was 6.5 RU; in test [9] it was 23.8 RU. The RU in test [10] came to 24.5 RU; in [11] it was 13.4 RU; in test [12], 13 RU; in test [13], 9.7 RU; in test [14], 7.3 RU; in test [15] it was 24 RU. This molecule also gave an RU in test [16] of 32.8 RU. In addition, the binding result is “binds” in test [5], “no binding” in test [6] and “no binding” in [7].

B6: mAb clone 24 (antibody, V domains shown)
VH: EVQLQQSGPELVKPGASVKMSCKASGYTFTDYYMKWVKQSHGKSLEWIGDINPNNGDTFYNQKFKGKATLTVDKSSSTAYMQLNSLTSEDSAVYYCARRGFYYYGSRGGIMDYWGQGTSVTVSS
VL: NIMMTQSPSSLAVSAGEKVTMSCKSSQSVLYSSNQKNYLAWYQQKPGQSPKLLIYWASTRESGVPDRFTGSGSGTDFTLTISSVQAEDLAVYYCHQYLSSYTFGGGTKLEIK
As to B6, the RU in [1] was found to be 34.4 RU; in test [2], 26.8 RU; in [3] it was 28.3 RU; in test [4], 42.6 RU; in test [8] it was 13.3 RU; in test [9] it was 30.5 RU. In addition, the RU in test [10] was determined as 30.7 RU; in test [11], 20.7 RU; in test [12], 17 RU; in test [13] it was 17.7 RU; in [14], 6.4 RU; in [15] it was 32.1 RU. For the same molecule, the RU in test [16] came to 39.1 RU. For the same molecule, the binding result in test [5] was “binds”; in [6], “no binding”; in [7], “no binding”.

B7: mAb clone 3, 21 (antibody, V domains shown)
VH: EVQLQQSGPELVKPGASVKISCKTSGYTFTEYTMHWVKQSHGKSLEWIGGINPNNGGTSYNQKFKGKATLTVDKSSSTAYMELRSLTSEDSAVYYCARSLVEGDFAYWGQGTLVTVSA
VL: DIVLTQSPASLAVSLGQRATISCRASQSVSTSSYSYMHWYQQKPGQPPKLLIKYASNLESGVPARFSGSGSGTDFTLNIHPVEEEDTATYYCQHSWEIPYTFGGGTKLEIK
For the molecule B7, the figures for the binding result in [5], in test [6] and in test [7] were “binds”, “binds” and “no binding”, respectively. For the same molecule, the “RU Ag/250 RU mAbs” value in test [18] stood at 5.89 RU Ag/250 RU mAbs; in [19] it was 3.41 RU Ag/250 RU mAbs.
